Experiment [1] concerns the target human proBNP(1-108), recombinant protein produced in E. coli (non-glycosylated) (human) (UniProt P16860). The experiment in a line: sandwich ELISA; capture hinge 76; proBNP(1-108) 78 pg/ml; detection mAb-peroxidase 0.5 ug/ml. Background: An ELISA detects its analyte on a solid surface through an enzyme-linked reagent.
The target is the same in experiment [2]. The experiment is described as follows: sandwich ELISA; capture hinge 76; proBNP(1-108) 1,250 pg/ml; detection mAb-peroxidase 0.5 ug/ml.
Experiment [3] shares this target. The experiment in a line: sandwich ELISA; capture hinge 76; proBNP(1-108) 39 pg/ml; detection mAb-peroxidase 0.5 ug/ml.
The target is the same in experiment [4]. The experiment is described as follows: sandwich ELISA; capture hinge 76; proBNP(1-108) 10,000 pg/ml; detection mAb-peroxidase 0.5 ug/ml.
For experiment [5], the target named is human BNP(1-32) (human). The experiment in a line: sandwich ELISA; capture L21016; BNP(1-32) 5,000 pg/ml; detection mAb 0.5 ug/ml.
Experiment [6] addresses human BNP(1-32) (human). The experiment is described as follows: sandwich ELISA; capture L21016; BNP(1-32) 20 pg/ml; detection mAb 0.5 ug/ml.
Experiment [7] concerns the target human proBNP(1-108), recombinant protein produced in E. coli (non-glycosylated) (human) (UniProt P16860). The experiment in a line: sandwich ELISA; capture hinge 76; proBNP(1-108) 312.5 pg/ml; detection mAb-peroxidase 0.5 ug/ml.
The target is the same in experiment [8]. The experiment in a line: sandwich ELISA; capture hinge 76; proBNP(1-108) 2,500 pg/ml; detection mAb-peroxidase 0.5 ug/ml.
In experiment [9] the target is human BNP(1-32) (human). The experiment in a line: sandwich ELISA; capture L21016; BNP(1-32) 39 pg/ml; detection mAb 0.5 ug/ml.
The target in experiment [10] is human proBNP(1-108), recombinant protein produced in E. coli (non-glycosylated) (human) (UniProt P16860). The experiment in a line: sandwich ELISA; capture hinge 76; proBNP(1-108) 156.25 pg/ml; detection mAb-peroxidase 0.5 ug/ml.
Experiment [11] has the same target. The experiment in a line: sandwich ELISA; capture hinge 76; proBNP(1-108) 0 pg/ml (blank); detection mAb-peroxidase 0.5 ug/ml.
For experiment [12], the target named is human BNP(1-32) (human). The experiment is described as follows: sandwich ELISA; capture L21016; BNP(1-32) 156.25 pg/ml; detection mAb 0.5 ug/ml.
Experiment [13] addresses human BNP(1-32) (human). The experiment in a line: sandwich ELISA; capture L21016; BNP(1-32) 312.5 pg/ml; detection mAb 0.5 ug/ml.
Experiment [14] concerns the target human BNP(1-32) (human). The experiment is described as follows: sandwich ELISA; capture L21016; BNP(1-32) 78 pg/ml; detection mAb 0.5 ug/ml.
Experiment [15] addresses human BNP(1-32) (human). The experiment in a line: sandwich ELISA; capture L21016; BNP(1-32) 10,000 pg/ml; detection mAb 0.5 ug/ml.
Experiment [16] concerns the target human BNP(1-32) (human). The experiment in a line: sandwich ELISA; capture L21016; BNP(1-32) 0 pg/ml (blank); detection mAb 0.5 ug/ml.
Experiment [17] addresses human BNP(1-32) (human). The experiment in a line: sandwich ELISA; capture L21016; BNP(1-32) 1,250 pg/ml; detection mAb 0.5 ug/ml.
Experiment [18] addresses human proBNP(1-108), recombinant protein produced in E. coli (non-glycosylated) (human) (UniProt P16860). The experiment is described as follows: sandwich ELISA; capture hinge 76; proBNP(1-108) 625 pg/ml; detection mAb-peroxidase 0.5 ug/ml.
The target is the same in experiment [19]. The experiment is described as follows: sandwich ELISA; capture hinge 76; proBNP(1-108) 5,000 pg/ml; detection mAb-peroxidase 0.5 ug/ml.
Experiment [20] has as its target human BNP(1-32) (human). The experiment in a line: sandwich ELISA; capture L21016; BNP(1-32) 625 pg/ml; detection mAb 0.5 ug/ml.
Experiment [21] addresses human BNP(1-32) (human). The experiment in a line: sandwich ELISA; capture L21016; BNP(1-32) 2,500 pg/ml; detection mAb 0.5 ug/ml.
For experiment [22], the target named is human proBNP(1-108), recombinant protein produced in E. coli (non-glycosylated) (human) (UniProt P16860). The experiment in a line: sandwich ELISA; capture hinge 76; proBNP(1-108) 20 pg/ml; detection mAb-peroxidase 0.5 ug/ml.

Chain of human proBNP(1-108), recombinant protein produced in E. coli (non-glycosylated) (human) (P16860 27-134): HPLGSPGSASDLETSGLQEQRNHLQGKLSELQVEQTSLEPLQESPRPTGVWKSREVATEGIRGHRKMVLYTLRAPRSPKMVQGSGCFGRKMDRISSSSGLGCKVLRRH
Chain of human BNP(1-32) (human) (peptide, as listed by the source): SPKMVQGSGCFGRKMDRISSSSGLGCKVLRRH

For the substance “24C5 monoclonal antibody (HyTest, Turku, Finland)”, the OD in [1] was determined as 0.056 OD; in experiment [2] it was 0.068 OD; in [3], 0.056 OD; in experiment [4], 0.22 OD; in experiment [7], 0.035 OD; in experiment [8] it was 0.069 OD. Also, the OD in [10] is 0.055 OD; in experiment [11], 0.044 OD; in experiment [18] it was 0.07 OD; in [19] it was 0.117 OD; in experiment [22], 0.052 OD. The OD 490 nm stood at 0.068 OD with human BNP(1-32) (human) [5]; 0.068 OD with human BNP(1-32) (human) [6]; 0.055 OD with human BNP(1-32) (human) [9]; 0.071 OD with human BNP(1-32) (human) [12]; 0.063 OD with human BNP(1-32) (human) [13]; 0.052 OD with human BNP(1-32) (human) [14]. For the same substance, the OD 490 nm with human BNP(1-32) (human) [15] came out at 0.077 OD; with human BNP(1-32) (human) [16] it was 0.071 OD; with human BNP(1-32) (human) [17] it was 0.056 OD; with human BNP(1-32) (human) [20], 0.059 OD; with human BNP(1-32) (human) [21], 0.067 OD.

Regarding “26E2 monoclonal antibody (HyTest, Turku, Finland)”, the OD in experiment [1] turned out to be 0.033 OD; in [2], 0.024 OD; in experiment [3], 0.028 OD; in experiment [4] it was 0.158 OD; in experiment [7], 0.028 OD; in [8], 0.031 OD. The OD in experiment [10] was 0.027 OD; in [11], 0.024 OD; in experiment [18], 0.024 OD; in experiment [19] it was 0.041 OD; in experiment [22], 0.028 OD. The OD 490 nm in the experiment with human BNP(1-32) (human) [5] turned out to be 0.041 OD; with human BNP(1-32) (human) [6], 0.034 OD; with human BNP(1-32) (human) [9], 0.032 OD; with human BNP(1-32) (human) [12], 0.032 OD; with human BNP(1-32) (human) [13], 0.027 OD; in the experiment with human BNP(1-32) (human) [14], 0.055 OD. In addition, the OD 490 nm is 0.048 OD in the experiment with human BNP(1-32) (human) [15]; 0.022 OD in the experiment with human BNP(1-32) (human) [16]; 0.031 OD with human BNP(1-32) (human) [17]; 0.029 OD with human BNP(1-32) (human) [20]; 0.035 OD with human BNP(1-32) (human) [21].

For the origin of these results see patent US20200072853A1.
